T1: human EpCAM on DiFi cells (human)
T1 chain: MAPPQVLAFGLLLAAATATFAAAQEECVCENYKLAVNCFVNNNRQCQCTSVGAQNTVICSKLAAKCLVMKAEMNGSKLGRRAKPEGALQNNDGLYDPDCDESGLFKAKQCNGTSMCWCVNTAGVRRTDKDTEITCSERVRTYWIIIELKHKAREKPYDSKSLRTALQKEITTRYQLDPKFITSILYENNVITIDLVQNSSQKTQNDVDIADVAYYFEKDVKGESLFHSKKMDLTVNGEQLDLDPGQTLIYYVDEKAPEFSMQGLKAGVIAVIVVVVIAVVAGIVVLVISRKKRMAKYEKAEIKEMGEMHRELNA

T2: FcγRIIa R131 (human, UniProt P12318)
T2 chain: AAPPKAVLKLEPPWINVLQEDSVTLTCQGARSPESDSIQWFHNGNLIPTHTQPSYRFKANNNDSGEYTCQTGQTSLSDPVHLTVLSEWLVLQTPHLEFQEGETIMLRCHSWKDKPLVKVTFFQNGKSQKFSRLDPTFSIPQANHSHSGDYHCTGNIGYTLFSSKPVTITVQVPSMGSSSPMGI

T3: FcγRIIb (human, UniProt P31994)
T3 chain: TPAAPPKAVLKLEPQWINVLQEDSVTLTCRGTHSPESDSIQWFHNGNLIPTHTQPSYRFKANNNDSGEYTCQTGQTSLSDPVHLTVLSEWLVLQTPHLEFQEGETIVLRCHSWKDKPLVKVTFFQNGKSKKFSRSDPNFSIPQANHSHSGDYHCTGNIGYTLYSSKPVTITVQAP

T4: FcγRIa (human, UniProt P12314)
T4 chain: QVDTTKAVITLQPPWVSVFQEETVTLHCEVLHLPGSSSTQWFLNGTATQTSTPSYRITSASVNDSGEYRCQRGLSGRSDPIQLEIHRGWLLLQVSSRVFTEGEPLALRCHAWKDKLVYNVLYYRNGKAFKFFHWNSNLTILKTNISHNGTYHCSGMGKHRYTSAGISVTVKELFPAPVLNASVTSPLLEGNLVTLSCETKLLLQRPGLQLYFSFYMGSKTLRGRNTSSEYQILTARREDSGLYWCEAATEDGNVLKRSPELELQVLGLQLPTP

T5: FcγRIIa H131 (human, UniProt P12318)
T5 chain: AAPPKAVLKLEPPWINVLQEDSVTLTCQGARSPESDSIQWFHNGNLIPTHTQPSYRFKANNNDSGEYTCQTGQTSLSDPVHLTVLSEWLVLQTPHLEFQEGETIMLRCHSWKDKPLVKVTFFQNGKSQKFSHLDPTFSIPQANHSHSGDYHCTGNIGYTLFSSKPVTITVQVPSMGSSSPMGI

T6: human EpCAM extracellular domain (human)
T6 chain: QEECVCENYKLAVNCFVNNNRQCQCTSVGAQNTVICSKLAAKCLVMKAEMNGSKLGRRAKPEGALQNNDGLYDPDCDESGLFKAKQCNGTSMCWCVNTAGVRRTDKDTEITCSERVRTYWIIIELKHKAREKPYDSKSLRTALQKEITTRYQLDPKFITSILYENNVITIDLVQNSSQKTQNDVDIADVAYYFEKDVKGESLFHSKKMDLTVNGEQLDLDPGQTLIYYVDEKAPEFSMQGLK


Columns and labels:
[1] = biological target: T1, human EpCAM on DiFi cells; test: FACS, DiFi cells
FcγRIIa R131 = biological target: T2, FcγRIIa R131; test: SPR
human FcRn [2] = biological target: T7, human FcRn (human, UniProt P55899); test: SPR, pH 6.0
FcγRIIIa V158 = FcγRIIIa V158 (human, UniProt P08637); test: SPR
FcγRIIb = biological target: T3, FcγRIIb; test: SPR
FcγRIa = biological target: T4, FcγRIa; test: SPR
FcγRIIIa F158 = FcγRIIIa F158 (human, UniProt P08637); test: SPR
human FcRn [3] = biological target: T7, human FcRn; test: SPR, pH 7.4
FcγRIIa H131 = biological target: T5, FcγRIIa H131; test: SPR
[4] = biological target: T6, human EpCAM extracellular domain; test: BLI, 30C, monovalent

Sequence of FcγRIIIa F158 (P08637 17-208): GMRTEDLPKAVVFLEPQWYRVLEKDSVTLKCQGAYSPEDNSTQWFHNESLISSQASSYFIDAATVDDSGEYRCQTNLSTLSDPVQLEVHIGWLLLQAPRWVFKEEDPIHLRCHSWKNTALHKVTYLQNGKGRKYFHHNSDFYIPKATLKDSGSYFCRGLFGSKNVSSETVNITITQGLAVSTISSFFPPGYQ
Sequence of FcγRIIIa V158 (P08637 17-208 F176V): as the sequence (P08637 17-208) above, with F160V counted along it

| Binder | binding result [1] | Kd (human FcRn [2]) [nM] | binding result (FcγRIIIa V158) | binding result (FcγRIa) | binding result (FcγRIIIa F158) | binding result (human FcRn [3]) | Kd [4] [nM] | further results |
| --- | --- | --- | --- | --- | --- | --- | --- | --- |
| BisG2amm-EpCAM-323-A3-AALT/m4-1BB-3H3-AAKR (EpCAM arm) (antibody, V domains shown) VH: QIQLVQSGPELKKPGETVKISCKASGYTFTNYGMNWVRQASGEGLKWMGWINTYTGEPTYGEDFKGRFAFSLETSASTAYLQINNLKNEDTATYFCARFGNYVDYWGQGTTLTVSS VL: DIVMTQAAFSNPVTLGTSASISCRSSKNLLHSNGITYLYWYLQKPGQSPHLLIYQMSNLASGVPDRFSSSGSGTDFTLRISRVEAEDVGVYYCAQNLEIPRTFGGGTKLEIKR |  |  |  |  |  |  | 3.2 |  |
| IgG1-EpCAM-A37-FERL (antibody) chain 1: not shown chain 2: EIELTQSPGTLSLSPGERATLSCRASQTISNNYLAWYQQKRGQAPRLLIYAASSRATGIPDRFSGTGSGTDFTLTISRLEPEDFAVYYCAQGELYPRQFGGGTKLEIKRTVAAPSVFIFPPSDEQLKSGTASVVCLLNNFYPREAKVQWKVDNALQSGNSQESVTEQDSKDSTYSLSSTLTLSKADYEKHKVYACEVTHQGLSSPVTKSFNRGEC |  | 230 | no binding | no binding | no binding | no binding |  |  |
| BisG1-b12-FEAL/EpCAM-A37-FEAR (EpCAM arm) (antibody, V domains shown) VH: QVQLVQSGAEVKKPGSSVRVSCKASGGTFSSYAISWVRQAPGQGLEWMGGIIPIFGTANYAQKFQGRVTITADESTSTAYMELSSLRSEDTAVYYCARDPFLHYWGQGTLVTVSS VL: EIELTQSPGTLSLSPGERATLSCRASQTISNNYLAWYQQKRGQAPRLLIYAASSRATGIPDRFSGTGSGTDFTLTISRLEPEDFAVYYCAQGELYPRQFGGGTKLEIK |  |  |  |  |  |  | 20 |  |

The next lines start with results.

| binding result [1] | Kd (human FcRn [2]) [nM] | binding result (FcγRIIIa V158) | binding result (FcγRIa) | binding result (FcγRIIIa F158) | binding result (human FcRn [3]) | Kd [4] [nM] | Binder | further results |
| --- | --- | --- | --- | --- | --- | --- | --- | --- |
| no binding |  |  |  |  |  |  | bsIgG1-b12-FERL/b12-FEAR (antibody) chain 1: QVQLVQSGAEVKKPGASVKVSCQASGYRFSNFVIHWVRQAPGQRFEWMGWINPYNGNKEFSAKFQDRVTFTADTSANTAYMELRSLRSADTAVYYCARVGPYSWDDSPQDNYYMDVWGKGTTVIVSSASTKGPSVFPLAPSSKSTSGGTAALGCLVKDYFPEPVTVSWNSGALTSGVHTFPAVLQSSGLYSLSSVVTVPSSSLGTQTYICNVNHKPSNTKVDKRVEPKSCDKTHTCPPCPAPEFERGPSVFLFPPKPKDTLMISRTPEVTCVVVDVSHEDPEVKFNWYVDGVEVHNAKTKPREEQYNSTYRVVSVLTVLHQDWLNGKEYKCKVSNKALPAPIEKTISKAKGQPREPQVYTLPPSREEMTKNQVSLTCLVKGFYPSDIAVEWESNGQPENNYKTTPPVLDSDGSFLLYSKLTVDKSRWQQGNVFSCSVMHEALHNHYTQKSLSLSPG chain 2: EIVLTQSPGTLSLSPGERATFSCRSSHSIRSRRVAWYQHKPGQAPRLVIHGVSNRASGISDRFSGSGSGTDFTLTITRVEPEDFALYYCQVYGASSYTFGQGTKLERKRTVAAPSVFIFPPSDEQLKSGTASVVCLLNNFYPREAKVQWKVDNALQSGNSQESVTEQDSKDSTYSLSSTLTLSKADYEKHKVYACEVTHQGLSSPVTKSFNRGEC chain 3: QVQLVQSGAEVKKPGASVKVSCQASGYRFSNFVIHWVRQAPGQRFEWMGWINPYNGNKEFSAKFQDRVTFTADTSANTAYMELRSLRSADTAVYYCARVGPYSWDDSPQDNYYMDVWGKGTTVIVSSASTKGPSVFPLAPSSKSTSGGTAALGCLVKDYFPEPVTVSWNSGALTSGVHTFPAVLQSSGLYSLSSVVTVPSSSLGTQTYICNVNHKPSNTKVDKRVEPKSCDKTHTCPPCPAPEFEGGPSVFLFPPKPKDTLMISRTPEVTCVVVAVSHEDPEVKFNWYVDGVEVHNAKTKPREEQYNSTYRVVSVLTVLHQDWLNGKEYKCKVSNKALPAPIEKTISKAKGQPREPQVYTLPPSREEMTKNQVSLTCLVKGFYPSDIAVEWESNGQPENNYKTTPPVLDSDGSFFLYSRLTVDKSRWQQGNVFSCSVMHEALHNHYTQKSLSLSPG chain 4: EIVLTQSPGTLSLSPGERATFSCRSSHSIRSRRVAWYQHKPGQAPRLVIHGVSNRASGISDRFSGSGSGTDFTLTITRVEPEDFALYYCQVYGASSYTFGQGTKLERKRTVAAPSVFIFPPSDEQLKSGTASVVCLLNNFYPREAKVQWKVDNALQSGNSQESVTEQDSKDSTYSLSSTLTLSKADYEKHKVYACEVTHQGLSSPVTKSFNRGEC |  |
|  | 375 | no binding | no binding | no binding | no binding |  | IgG1-CD137-009-HC7LC2-FEAR (antibody) chain 1: EVQLVESGGGLVQPGRSLRLSCTASGFSLNDYWMSWVRQAPGKGLEWVGYIDVGGSLYYAASVKGRFTISRDDSKSIAYLQMNSLKTEDTAVYYCARGGLTYGFDLWGQGTLVTVSSASTKGPSVFPLAPSSKSTSGGTAALGCLVKDYFPEPVTVSWNSGALTSGVHTFPAVLQSSGLYSLSSVVTVPSSSLGTQTYICNVNHKPSNTKVDKRVEPKSCDKTHTCPPCPAPEFEGGPSVFLFPPKPKDTLMISRTPEVTCVVVAVSHEDPEVKFNWYVDGVEVHNAKTKPREEQYNSTYRVVSVLTVLHQDWLNGKEYKCKVSNKALPAPIEKTISKAKGQPREPQVYTLPPSREEMTKNQVSLTCLVKGFYPSDIAVEWESNGQPENNYKTTPPVLDSDGSFFLYSRLTVDKSRWQQGNVFSCSVMHEALHNHYTQKSLSLSPG chain 2: DIVMTQSPSSLSASVGDRVTITCQASEDISSYLAWYQQKPGKAPKRLIYGASDLASGVPSRFSASGSGTDYTFTISSLQPEDIATYYCHYYATISGLGVAFGGGTKVEIKRTVAAPSVFIFPPSDEQLKSGTASVVCLLNNFYPREAKVQWKVDNALQSGNSQESVTEQDSKDSTYSLSSTLTLSKADYEKHKVYACEVTHQGLSSPVTKSFNRGEC | binding result (FcγRIIa R131): no binding; binding result (FcγRIIb): no binding; binding result (FcγRIIa H131): no binding |
| no binding |  |  |  |  |  |  | bsIgG1-b12-FERL/CD137-009-HC7LC2-FEAR (antibody) chain 1: QVQLVQSGAEVKKPGASVKVSCQASGYRFSNFVIHWVRQAPGQRFEWMGWINPYNGNKEFSAKFQDRVTFTADTSANTAYMELRSLRSADTAVYYCARVGPYSWDDSPQDNYYMDVWGKGTTVIVSSASTKGPSVFPLAPSSKSTSGGTAALGCLVKDYFPEPVTVSWNSGALTSGVHTFPAVLQSSGLYSLSSVVTVPSSSLGTQTYICNVNHKPSNTKVDKRVEPKSCDKTHTCPPCPAPEFERGPSVFLFPPKPKDTLMISRTPEVTCVVVDVSHEDPEVKFNWYVDGVEVHNAKTKPREEQYNSTYRVVSVLTVLHQDWLNGKEYKCKVSNKALPAPIEKTISKAKGQPREPQVYTLPPSREEMTKNQVSLTCLVKGFYPSDIAVEWESNGQPENNYKTTPPVLDSDGSFLLYSKLTVDKSRWQQGNVFSCSVMHEALHNHYTQKSLSLSPG chain 2: EIVLTQSPGTLSLSPGERATFSCRSSHSIRSRRVAWYQHKPGQAPRLVIHGVSNRASGISDRFSGSGSGTDFTLTITRVEPEDFALYYCQVYGASSYTFGQGTKLERKRTVAAPSVFIFPPSDEQLKSGTASVVCLLNNFYPREAKVQWKVDNALQSGNSQESVTEQDSKDSTYSLSSTLTLSKADYEKHKVYACEVTHQGLSSPVTKSFNRGEC chain 3: EVQLVESGGGLVQPGRSLRLSCTASGFSLNDYWMSWVRQAPGKGLEWVGYIDVGGSLYYAASVKGRFTISRDDSKSIAYLQMNSLKTEDTAVYYCARGGLTYGFDLWGQGTLVTVSSASTKGPSVFPLAPSSKSTSGGTAALGCLVKDYFPEPVTVSWNSGALTSGVHTFPAVLQSSGLYSLSSVVTVPSSSLGTQTYICNVNHKPSNTKVDKRVEPKSCDKTHTCPPCPAPEFEGGPSVFLFPPKPKDTLMISRTPEVTCVVVAVSHEDPEVKFNWYVDGVEVHNAKTKPREEQYNSTYRVVSVLTVLHQDWLNGKEYKCKVSNKALPAPIEKTISKAKGQPREPQVYTLPPSREEMTKNQVSLTCLVKGFYPSDIAVEWESNGQPENNYKTTPPVLDSDGSFFLYSRLTVDKSRWQQGNVFSCSVMHEALHNHYTQKSLSLSPG chain 4: DIVMTQSPSSLSASVGDRVTITCQASEDISSYLAWYQQKPGKAPKRLIYGASDLASGVPSRFSASGSGTDYTFTISSLQPEDIATYYCHYYATISGLGVAFGGGTKVEIKRTVAAPSVFIFPPSDEQLKSGTASVVCLLNNFYPREAKVQWKVDNALQSGNSQESVTEQDSKDSTYSLSSTLTLSKADYEKHKVYACEVTHQGLSSPVTKSFNRGEC |  |
